The target in data set [1] is T1, SRSF1 RS (human, UniProt Q07955 199-248).
T1 chain: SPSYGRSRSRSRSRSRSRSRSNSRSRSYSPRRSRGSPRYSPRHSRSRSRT
As to the kind of experiment: STD NMR; 0.5 mM RNA, 10 uM RS, D2O; no signal above noise; FP, 10 nM RNA, 37 C 30 min then 25 C 10 min; 21-mers: 25 mM KCl, 0.25 M Arg/Glu, 20 mM Tris-HCl pH 7.5, 0.1 mM EDTA, 0.1 mM TCEP, 0.02% Tween 20; 8-mers: 35 mM. Conditions: protein: recombinant; tags: none (SUMO cleaved).

The target of data set [2] is T2, SRSF1 RRM tandem (human, UniProt Q07955 1-196). Description: FP; FP, 10 nM RNA, 37 C 30 min then 25 C 10 min; 21-mers: 25 mM KCl, 0.25 M Arg/Glu, 20 mM Tris-HCl pH 7.5, 0.1 mM EDTA, 0.1 mM TCEP, 0.02% Tween 20; 8-mers: 35 mM. Conditions: protein: recombinant; tags: none (SUMO cleaved); label: 5' fluorescein.
Data set [3] deals with T1, SRSF1 RS. The description is as above. Conditions: protein: recombinant, tags: none (SUMO cleaved), label: 5' fluorescein.
The target in data set [4] is T1, SRSF1 RS. As to the kind of experiment: STD NMR; 0.5 mM RNA, 10 uM RS, D2O; strongest signal; FP, 10 nM RNA, 37 C 30 min then 25 C 10 min; 21-mers: 25 mM KCl, 0.25 M Arg/Glu, 20 mM Tris-HCl pH 7.5, 0.1 mM EDTA, 0.1 mM TCEP, 0.02% Tween 20; 8-mers: 35 mM. Conditions: protein: recombinant; tags: none (SUMO cleaved).
Data set [5] deals with T1, SRSF1 RS. Description: FP; 8-mer buffer, 35 mM K3PO4; FP, 10 nM RNA, 37 C 30 min then 25 C 10 min; 21-mers: 25 mM KCl, 0.25 M Arg/Glu, 20 mM Tris-HCl pH 7.5, 0.1 mM EDTA, 0.1 mM TCEP, 0.02% Tween 20; 8-mers: 35 mM. Conditions: protein: recombinant, tags: none (SUMO cleaved), label: 5' fluorescein.
Data set [6] concerns the target T2, SRSF1 RRM tandem. Description: FP; FP, 10 nM RNA, 37 C 30 min then 25 C 10 min; 21-mers: 25 mM KCl, 0.25 M Arg/Glu, 20 mM Tris-HCl pH 7.5, 0.1 mM EDTA, 0.1 mM TCEP, 0.02% Tween 20; 8-mers: 35 mM. Conditions: protein: recombinant, tags: none (SUMO cleaved), label: 5' fluorescein.
In another data set the target is SRSF1 full-length (human, UniProt Q07955 1-248). The description is as above. Conditions: protein: recombinant, tags: none (pSMT3 His-SUMO, Ulp1 cleaved), label: 5' fluorescein.
In another data set the target is RRM tandem F56A (human, UniProt Q07955 1-196, F56A). Described as above. Conditions: protein: recombinant; tags: SUMO; label: 5' fluorescein; G-quadruplex (parallel).
For another data set, the target named is RS mutant KS (human, UniProt Q07955 198-248, R198K;R204K;R206K;R208K;R210K;R212K;R214K;R216K;R218K;R222K;R224K;R229K;R230K;R2 …). Described as above. Conditions: protein: recombinant; tags: none (SUMO cleaved); label: 5' fluorescein; G-quadruplex (parallel).
Another data set concerns the target RRM tandem WT (Table 3) (human, UniProt Q07955 1-196). Described as above. Conditions: protein: recombinant; tags: SUMO; label: 5' fluorescein; G-quadruplex (parallel).
The target in the next data set is T3, RRM1/RRM2 linker (human, UniProt Q07955 92-120).
T3 chain: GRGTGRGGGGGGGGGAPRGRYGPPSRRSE
Described as above. Conditions: protein: recombinant; label: 5' fluorescein; G-quadruplex (parallel).

For the next data set, the target named is RRM tandem Q135A (human, UniProt Q07955 1-196, Q135A). Described as above. Conditions: protein: recombinant; tags: SUMO; label: 5' fluorescein; G-quadruplex (parallel).
The target of a further data set is RRM tandem F58A (human, UniProt Q07955 1-196, F58A). The data set is described as above. Conditions: protein: recombinant; tags: SUMO; label: 5' fluorescein; G-quadruplex (parallel).
For the next data set, the target named is RRM tandem R173A (human, UniProt Q07955 1-196, R173A). Described as above. Conditions: protein: recombinant; tags: SUMO; label: 5' fluorescein; G-quadruplex (parallel).
The target of the next data set is RRM tandem W134A (human, UniProt Q07955 1-196, W134A). The description is as above. Conditions: protein: recombinant; tags: SUMO; label: 5' fluorescein; G-quadruplex (parallel).
The next data set deals with RRM tandem Y19A (human, UniProt Q07955 1-196, Y19A). Described as above. Conditions: protein: recombinant; tags: SUMO; label: 5' fluorescein; G-quadruplex (parallel).
A further data set has as its target RS mutant RA (human, UniProt Q07955 198-248, S199A;S201A;S205A;S207A;S209A;S211A;S213A;S215A;S217A;S219A;S221A;S223A;S225A;S2 …). As to the kind of experiment: FP; similar affinity to RS; FP, 10 nM RNA, 37 C 30 min then 25 C 10 min; 21-mers: 25 mM KCl, 0.25 M Arg/Glu, 20 mM Tris-HCl pH 7.5, 0.1 mM EDTA, 0.1 mM TCEP, 0.02% Tween 20; 8-mers: 35 mM. Conditions: protein: recombinant; tags: none (SUMO cleaved); label: 5' fluorescein; G-quadruplex (parallel).

T2 sequence (Q07955 1-196): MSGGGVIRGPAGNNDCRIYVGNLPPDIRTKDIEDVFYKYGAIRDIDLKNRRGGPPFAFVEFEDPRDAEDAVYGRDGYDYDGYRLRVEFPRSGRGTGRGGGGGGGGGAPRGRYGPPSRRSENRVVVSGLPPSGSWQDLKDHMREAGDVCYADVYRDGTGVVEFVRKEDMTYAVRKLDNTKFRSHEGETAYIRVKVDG
RRM tandem WT (Table 3), sequence (Q07955 1-196): as above
RRM tandem Y19A, sequence (Q07955 1-196 Y19A): as the sequence (Q07955 1-196) above, with Y19A counted along it
RRM tandem W134A, sequence (Q07955 1-196 W134A): as the sequence (Q07955 1-196) above, with W134A counted along it
RRM tandem F56A, sequence (Q07955 1-196 F56A): as the sequence (Q07955 1-196) above, with F56A counted along it
RRM tandem R173A, sequence (Q07955 1-196 R173A): as the sequence (Q07955 1-196) above, with R173A counted along it
RRM tandem F58A, sequence (Q07955 1-196 F58A): as the sequence (Q07955 1-196) above, with F58A counted along it
RRM tandem Q135A, sequence (Q07955 1-196 Q135A): as the sequence (Q07955 1-196) above, with Q135A counted along it

Turning to UUU (ssRNA) [UUU 3-mer], in the data set with SRSF1 RS [1], the binding result is on record as “no binding”.

Regarding UCAGAGGG (ssRNA) [GGG motif RNA], in the data set with SRSF1 RRM tandem [2], the binding signal is ~3 fold weaker than GGA motif.

The Kd is the equilibrium constant for the complex coming apart. In the case of CUCUCUCUCUCUCUCUCUCUC (ssRNA) [21-mer CU], the Kd with SRSF1 RS [3] was 1400 ± 100 nM.

On to GGG (ssRNA) [GGG 3-mer], for which the binding result with SRSF1 RS [4] was “binds”.

For AAAAAAAA (ssRNA) [8A], in the data set with SRSF1 RS [5], the Kd amounted to 610 ± 15 nM.

UUUUUUUU (ssRNA) [8U]: the dissociation constant Kd with SRSF1 RS [5] came out at 550 ± 21 nM.

Turning to UUGGGAGGGAGGGAGAGGGUU (structured_RNA) [MMP16 GQ], the Kd came to 150 ± 10 nM with SRSF1 RS [3] (G-quadruplex), 3.5 ± 0.49 µM in the data set with SRSF1 RRM tandem [6] (G-quadruplex) and 5.9 ± 0.6 nM in the data set with SRSF1 full-length (G-quadruplex).

In the case of GGGGGGGG (structured_RNA) [8G], the dissociation constant (Kd) in the data set with SRSF1 RS [5] (intermolecular G-quadruplex) amounted to 3 ± 0.8 nM.

With UGGGUUAGGGUUAGGGUUAGGG (structured_RNA) [TERRA GQ], the dissociation constant Kd in the data set with SRSF1 RS [3] (G-quadruplex) stood at 26 ± 2 nM; in the data set with SRSF1 RRM tandem [6] (G-quadruplex), 3.2 ± 0.29 µM; with SRSF1 full-length (G-quadruplex) it was 4.6 ± 0.5 nM.

As to GAGAGAGA (ssRNA) [4GA], the Kd with SRSF1 RS [5] came to 83 ± 3 nM.

With GAGAGAGAGAGAGAGAGAGAG (ssRNA) [21-mer GA], the Kd with SRSF1 RS [3] came to 210 ± 16 nM.

In the case of CUCUCUCU (ssRNA) [4CU], the Kd with SRSF1 RS [5] amounted to 470 ± 12 nM.

For the molecule AAA (ssRNA) [AAA 3-mer], the binding result with SRSF1 RS [1] is “no binding”.

With GGGGGCUGGGCGGGGACCGGG (structured_RNA) [ARPC2 GQ], the Kd with SRSF1 RS [3] (G-quadruplex (parallel)) was found to be 250 ± 22 nM; with RRM tandem F56A, 7 ± 1.5 µM; with RRM tandem WT (Table 3) it was 130 ± 11 nM; in the data set with SRSF1 RRM tandem [6] (G-quadruplex (parallel)) it was 0.22 ± 0.019 µM; with RRM tandem Q135A, 350 ± 20 nM; with RRM tandem F58A it was 1500 ± 80 nM. Also, the Kd with RRM tandem R173A worked out at 140 ± 12 nM; with SRSF1 full-length (G-quadruplex (parallel)) it was 3.6 ± 0.7 nM; in the data set with RRM tandem W134A, 1200 ± 90 nM; with RRM tandem Y19A, 1800 ± 160 nM. The binding result is recorded as “no binding” with RS mutant KS, “no binding” with RRM1/RRM2 linker and “binds” in the data set with RS mutant RA.

These data come from paper PMC11077049, “Unearthing a novel function of SRSF1 in binding and unfolding of RNA G-quadruplexes”.
